Data published in article PMC12712897.

Assays:
[1] = target: type I interleukin-1 receptor (UniProt P14778); experiment: MST; fluorescently labeled IL-1R1 titrated with serially diluted IL-1Ra variants and IL-1β; Monolith NT.115-pico
[2] = target: type I interleukin-1 receptor (UniProt P14778); experiment: SPR; IL-1R1 captured on a CM5 chip via a His Capture Kit; various concentrations of IL-1Ra variants and IL-1β flowed as analytes; Biacore T200
[3] = target: type I interleukin-1 receptor (UniProt P14778)
[4] = target: type I interleukin-1 receptor (UniProt P14778); remark: listed apart in the source

UniProt P14778, sequence (P14778 18-336): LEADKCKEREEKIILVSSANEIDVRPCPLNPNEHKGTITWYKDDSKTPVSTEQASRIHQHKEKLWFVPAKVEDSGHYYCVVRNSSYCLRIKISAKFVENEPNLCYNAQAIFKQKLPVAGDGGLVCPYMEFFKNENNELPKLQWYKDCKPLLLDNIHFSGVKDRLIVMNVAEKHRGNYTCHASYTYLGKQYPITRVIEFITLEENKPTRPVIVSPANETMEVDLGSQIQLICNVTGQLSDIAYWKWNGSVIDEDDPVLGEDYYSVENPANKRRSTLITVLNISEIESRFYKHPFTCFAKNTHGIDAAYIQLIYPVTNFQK

| Substance | Kd [1] | Kd [2] | reduction of IL-1β mRNA in HMC-3 cells (IL-1β 1 ng/ml + hIL-1Ra 25 ng/ml, 24 h; blocks IL-1β acting on IL-1R1) compared with RD hIL-1Ra WT [3] | reduction of IL-1β mRNA in HMC-3 cells (IL-1β 1 ng/ml + hIL-1Ra 25 ng/ml, 24 h; blocks IL-1β acting on IL-1R1) compared with iPT hIL-1Ra WT [3] | reduction of IL-6 mRNA in HMC-3 cells (IL-1β 1 ng/ml + hIL-1Ra 25 ng/ml, 24 h; blocks IL-1β acting on IL-1R1) compared with RD hIL-1Ra WT [4] | reduction of IL-6 mRNA in HMC-3 cells (IL-1β 1 ng/ml + hIL-1Ra 25 ng/ml, 24 h; blocks IL-1β acting on IL-1R1) compared with iPT hIL-1Ra WT [4] |
| --- | --- | --- | --- | --- | --- | --- |
| hIL-1Ra E127H (natural protein) | 4.59 nM | 0.256 nM |  |  |  |  |
| hIL-1Ra E127K (natural protein) | 5.54 nM | 0.41 nM | 35% | 32% |  |  |
| hIL-1Ra E127Q (natural protein) | 3.84 nM | 0.283 nM |  |  | 53% | 49% |
| hIL-1Ra E127S (natural protein) | 2.45 nM | 0.248 nM |  |  |  |  |
| hIL-1Ra E127V (natural protein) | 4.61 nM | 0.258 nM |  |  |  |  |

The remaining substances from weak to strong by Kd [1], led by results:

| Kd [1] | Kd [2] | reduction of IL-1β mRNA in HMC-3 cells (IL-1β 1 ng/ml + hIL-1Ra 25 ng/ml, 24 h; blocks IL-1β acting on IL-1R1) compared with RD hIL-1Ra WT [3] | reduction of IL-1β mRNA in HMC-3 cells (IL-1β 1 ng/ml + hIL-1Ra 25 ng/ml, 24 h; blocks IL-1β acting on IL-1R1) compared with iPT hIL-1Ra WT [3] | reduction of IL-6 mRNA in HMC-3 cells (IL-1β 1 ng/ml + hIL-1Ra 25 ng/ml, 24 h; blocks IL-1β acting on IL-1R1) compared with RD hIL-1Ra WT [4] | reduction of IL-6 mRNA in HMC-3 cells (IL-1β 1 ng/ml + hIL-1Ra 25 ng/ml, 24 h; blocks IL-1β acting on IL-1R1) compared with iPT hIL-1Ra WT [4] | Substance |
| --- | --- | --- | --- | --- | --- | --- |
| 40.6 nM | 3.5 nM |  |  |  |  | hIL-1Ra E127D (natural protein) |
| 7.52 nM | 0.396 nM |  |  |  |  | hIL-1Ra E127C (natural protein) |
| 6.06 nM | 0.281 nM |  |  |  |  | hIL-1Ra E127N (natural protein) |
